This is an account of results in patent publication US20060021091, “Maize bZIP transcription factors and genes encoding the same and use thereof” (published 2006).

Holding throughout (settings): tags: GST (pGEX4T-1); label: 32P 5' end (EMSA); annealed oligos with 3-nt overhangs, ligated as 4mer
(Mobility shift assays separate free from complexed probe on a gel.)

In data set [1] the target is T1, ABP4 (Zea mays).
T1 chain: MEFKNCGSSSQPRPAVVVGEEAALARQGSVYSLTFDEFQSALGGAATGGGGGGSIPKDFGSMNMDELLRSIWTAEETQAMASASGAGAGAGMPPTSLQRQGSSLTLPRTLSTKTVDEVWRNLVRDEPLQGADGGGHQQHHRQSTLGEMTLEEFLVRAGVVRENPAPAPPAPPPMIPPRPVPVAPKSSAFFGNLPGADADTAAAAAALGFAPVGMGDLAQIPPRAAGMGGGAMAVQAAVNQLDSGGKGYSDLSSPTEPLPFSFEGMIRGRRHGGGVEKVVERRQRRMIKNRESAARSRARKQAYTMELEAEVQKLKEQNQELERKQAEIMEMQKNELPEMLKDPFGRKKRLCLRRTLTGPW
As to the kind of experiment: EMSA; no retarded band. The protocol:
(§1) Add 4 μl of 5×binding buffer (125 mM HEPES-KOH pH7.6, 50% glycerol, 250 mM KC1). Add 4 μg (9 μl) of each of the proteins ABP2, ABP4, ABP9 and GST. Add 1 μl of 1M DTT, 1 μl of probe of the above-labeled ABRE (or InABRE) and 4 μl of H₂O. Incubate on ice for 30 minutes. Add 3 μl of sample buffer (0.025% bromophenol blue in sterile H₂O) and perform polyacrylamide gel eletrophoresis analysis.
(§2) Set up the gel mixture of 9 ml of 30% acrylamide, 5 ml of 10×eletrophoresis buffer (142.7 g/L glycin, 3.92 g/L EDTA, 30.28 g/L Tris), 2.5 ml of 50% glycerol, 33 ml of deionized water, 400 μl of 10% APS, and 25 μl of TEMED. After completion of polymerization, perfom gel eletrophoresis with 1×eletrophoresis buffer, including pre-running for 10 minutes (300V), loading the samples and eletrophoresis for 1 hour (300V). Stick the gel with filter paper to peel off. Seal the peeled gel with Saran wrap and expose to X ray film for 1 hour. Wash the film, develop for 2 minutes and fix for 5 minutes. […] This means that the products of the genes ABP2, ABP4, and ABP9 also have the ABRE binding specificity in vitro.

In data set [2] the target is T2, ABP9 (Zea mays).
T2 chain: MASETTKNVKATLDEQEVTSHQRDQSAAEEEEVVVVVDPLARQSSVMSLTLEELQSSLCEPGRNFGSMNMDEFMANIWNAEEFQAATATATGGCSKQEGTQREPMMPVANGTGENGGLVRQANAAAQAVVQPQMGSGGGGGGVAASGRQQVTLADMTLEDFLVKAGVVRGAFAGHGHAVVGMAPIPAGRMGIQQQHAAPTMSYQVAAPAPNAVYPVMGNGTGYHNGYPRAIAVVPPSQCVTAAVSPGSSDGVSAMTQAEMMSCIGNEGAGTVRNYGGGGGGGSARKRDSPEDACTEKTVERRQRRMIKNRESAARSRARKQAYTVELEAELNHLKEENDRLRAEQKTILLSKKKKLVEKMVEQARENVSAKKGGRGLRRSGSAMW
In words: EMSA; no retarded band. How it is done: as §1, §2

The target in data set [3] is T3, ABP2 (Zea mays).
T3 chain: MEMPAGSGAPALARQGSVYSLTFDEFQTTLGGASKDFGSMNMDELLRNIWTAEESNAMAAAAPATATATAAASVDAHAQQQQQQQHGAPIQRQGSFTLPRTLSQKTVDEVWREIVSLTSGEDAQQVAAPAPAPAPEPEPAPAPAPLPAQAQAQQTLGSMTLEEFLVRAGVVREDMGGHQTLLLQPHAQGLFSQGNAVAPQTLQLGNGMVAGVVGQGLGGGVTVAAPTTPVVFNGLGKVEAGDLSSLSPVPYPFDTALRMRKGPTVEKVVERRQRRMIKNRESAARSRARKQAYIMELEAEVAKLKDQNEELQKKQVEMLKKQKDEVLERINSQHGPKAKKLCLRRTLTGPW
In words: EMSA; no retarded band. How it is done: as §1, §2

Data set [4] addresses T1, ABP4. In words: EMSA; 25 mM HEPES-KOH pH 7.6, 50 mM KCl, 10% glycerol, DTT, on ice. The protocol: as §1, §2
Data set [5] has as its target T2, ABP9. The data set is described as above. How it is done: as §1, §2
Data set [6] has as its target T3, ABP2. Described as above. How it is done:
as §1, §2

B1: mABRE (dsDNA)
DNA 1: GAAGTAACATGTTCGGTGG
DNA 2: TCCCACCGAACATGTTACT
For the molecule B1, the binding result with ABP4 [1], with ABP9 [2] and with ABP2 [3] was “no binding” throughout.

B2: ABRE (dsDNA)
DNA 1: GAAGTCCACGTGGAGGTGG
DNA 2: TCCCACCTCCACGTGGACT
On to B2, for which the binding result with ABP4 [4], in the data set with ABP9 [5] and with ABP2 [6] was “binds” in each case.
